Measured values from article PMC4168798 (ACS Chemical Biology, 2014).

B1: Kaposi sarcoma herpesvirus Bcl-2 (domain or fragment)
chain: MDEDVLPGEVLAIEGIFMACGLNEPEYLYHPLLSPIKLYITGLMRDKESLFEAMLANVRFHSTTGINQLGLSMLQVSGDGNMNWGRALAILTFGSFVAQKLSNEPHLRDFALAVLPVYAYEAIGPQWFRARGGWRGLKAYCTQVLTRRRGRR

Columns and labels:
Assay in all cases: fluorescence polarisation
[1] = molecular target: B1
[2] = molecular target: Bcl-2 (c-myc-tagged, without the C-terminal trans-membrane region) (human)
[3] = molecular target: Mcl-1 (c-myc-tagged, without the N-terminal domain and the C-terminal trans-membrane region) (human)
[4] = molecular target: T1, Bfl-1 (c-myc-tagged, without the C-terminal trans-membrane region) (human)
T1 sequence (Q16548 whole entry, looked up): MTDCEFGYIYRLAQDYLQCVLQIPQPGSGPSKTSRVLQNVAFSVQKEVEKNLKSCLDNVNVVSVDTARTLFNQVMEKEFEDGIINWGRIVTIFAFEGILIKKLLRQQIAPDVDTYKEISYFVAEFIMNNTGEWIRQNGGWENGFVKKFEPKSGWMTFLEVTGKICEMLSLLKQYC

[5] = molecular target: Bcl-xL (c-myc-tagged, without the C-terminal trans-membrane region) (human)
[6] = molecular target: T2, Bcl-w (c-myc-tagged, without the C-terminal trans-membrane region) (human)
T2 chain: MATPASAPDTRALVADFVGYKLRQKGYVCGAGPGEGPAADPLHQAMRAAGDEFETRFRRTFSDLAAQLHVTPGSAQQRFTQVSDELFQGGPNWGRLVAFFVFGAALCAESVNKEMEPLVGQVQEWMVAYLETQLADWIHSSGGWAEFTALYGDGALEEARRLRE

[7] = molecular target: Bim_A2eT_I3dL, N-terminal fluorescein (N-terminal 5/6-fluorescein amidite; C-terminal amidation)

Sequence of Bcl-xL (c-myc-tagged, without the C-terminal trans-membrane region) (human) (Q07817 whole entry): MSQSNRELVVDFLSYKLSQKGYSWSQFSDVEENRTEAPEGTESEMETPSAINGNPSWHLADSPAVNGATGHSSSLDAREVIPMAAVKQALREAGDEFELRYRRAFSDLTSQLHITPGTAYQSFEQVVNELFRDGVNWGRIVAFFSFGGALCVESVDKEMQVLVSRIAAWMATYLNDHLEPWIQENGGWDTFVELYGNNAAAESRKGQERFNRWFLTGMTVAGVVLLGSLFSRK
Sequence of Mcl-1 (c-myc-tagged, without the N-terminal domain and the C-terminal trans-membrane region) (human) (Q07820 whole entry, the tested form may be a part): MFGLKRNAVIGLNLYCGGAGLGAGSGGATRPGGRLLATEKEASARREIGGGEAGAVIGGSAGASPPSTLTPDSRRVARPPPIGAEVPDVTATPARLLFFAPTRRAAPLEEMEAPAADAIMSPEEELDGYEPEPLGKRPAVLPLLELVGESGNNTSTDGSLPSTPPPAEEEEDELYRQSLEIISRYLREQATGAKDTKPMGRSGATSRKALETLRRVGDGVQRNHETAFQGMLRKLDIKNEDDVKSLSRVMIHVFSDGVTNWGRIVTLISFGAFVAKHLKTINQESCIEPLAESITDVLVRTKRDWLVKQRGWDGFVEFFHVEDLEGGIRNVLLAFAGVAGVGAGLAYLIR

Binder	Kd [1] [nM]	Kd [2] [nM]	Kd [3] [nM]	Kd [4] [nM]	Kd [5] [nM]	Kd [6] [nM]	Kd [7] [nM]
{5/6‑fluorescein amidite}-RPEIWLGQSLQRLGDEINAYYAR-NH2 (designed binder) [B3, N-terminal fluorescein]	1.43	35	< 1	26	4.2	16	–
B1	–	–	–	–	–	–	1
{5/6‑fluorescein amidite}-RPEIWLTQSLQRLGDEINAYYAR-NH2 (designed binder) [MS2, N-terminal fluorescein]	< 1	–	–	–	–	–	–
{5/6‑fluorescein amidite}-RPEIWMTQGLRRLGDEINAYYAR-NH2 (designed binder) [MS1, N-terminal fluorescein]	2.9	–	–	–	–	–	–
{5/6‑fluorescein amidite}-RPEIWMGQGLRRLGDEINAYYAR-NH2 (designed binder) [A12, N-terminal fluorescein]	4	42	2.4	22	9.8	210	–
{5/6‑fluorescein amidite}-RPEIWLTQHLQRLGDEINAYYAR-NH2 (designed binder) [MS3, N-terminal fluorescein]	–	> 3000	–	790	–	340	–
